Results as given in patent publication US9540620B2, “Methods and compositions for modulating G-alpha-Q signaling” (The University of North Carolina at Chapel Hill, priority 2012, dated 2017).

Tests used:
[1] = system: Gαq downstream of the muscarinic receptor; assay: Muscarinic receptor-dependent activation of PLC-β, [3H]inositol phosphate accumulation in HEK293 cells; assay type: cell-based; conditions: peptide for 30 minutes (FIG. 9)
Method: FIG. 9. Muscarinic receptor-dependent activation of PLC-β was determined by quantification of [^3H]inositol phosphate accumulation. Where indicated, HEK293 cells were treated with Palm-27-mer peptide for 30 minutes.
Since a major tenet of this invention is to interdict Gαq signaling in cells with peptidomimetics, it will be necessary to efficiently introduce peptides derived from this scaffold into cells. […] Moreover, once introduced, this peptide prevented the stimulation of PLC activity by Gαq downstream of the P2Y6 receptor and/or muscarinic receptor, a G protein-coupled receptor selective for Gαq (FIG. 7C and FIG. 9).
Since a major tenet of this work is to downregulate G-alpha-q signaling in cells with peptidomimetics, peptides derived from this scaffold have been efficiently delivered into cells.

activated Gαq = target: T1, activated Gαq (Homo sapiens, UniProt P50148); conditions: full-length protein; read-out: dissociation constant (KD) for activated Gαq; cited from earlier work
T1 sequence (P50148 1-359): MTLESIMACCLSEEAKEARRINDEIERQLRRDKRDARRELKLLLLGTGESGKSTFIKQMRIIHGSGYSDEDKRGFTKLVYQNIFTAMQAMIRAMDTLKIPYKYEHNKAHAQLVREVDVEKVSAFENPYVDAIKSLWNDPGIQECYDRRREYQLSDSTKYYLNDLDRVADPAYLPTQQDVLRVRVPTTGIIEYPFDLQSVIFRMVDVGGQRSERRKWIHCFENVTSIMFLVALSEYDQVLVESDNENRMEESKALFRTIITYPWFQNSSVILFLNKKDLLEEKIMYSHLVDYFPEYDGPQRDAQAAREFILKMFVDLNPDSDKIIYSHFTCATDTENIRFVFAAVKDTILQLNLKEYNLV

Gαq = target: T2, Gαq (Homo sapiens, UniProt P50148); assay: Fluorescence polarization competition: unlabeled PLC-β3 against TAMRA-labeled peptide for Gαq; assay type: binding; conditions: TAMRA-27-mer 400 nM, Gαq 800 nM
T2 sequence (P50148 1-359): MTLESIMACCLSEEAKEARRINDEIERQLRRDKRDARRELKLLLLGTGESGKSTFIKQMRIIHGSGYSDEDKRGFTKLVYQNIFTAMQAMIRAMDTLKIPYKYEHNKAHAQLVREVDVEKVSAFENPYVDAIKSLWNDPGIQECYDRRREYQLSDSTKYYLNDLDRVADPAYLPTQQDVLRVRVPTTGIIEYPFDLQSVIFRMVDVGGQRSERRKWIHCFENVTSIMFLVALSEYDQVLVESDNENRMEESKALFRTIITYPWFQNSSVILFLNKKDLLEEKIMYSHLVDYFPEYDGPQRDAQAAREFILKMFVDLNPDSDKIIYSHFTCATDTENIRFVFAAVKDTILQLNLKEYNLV
Method: FIGS. 3A and 3B. TAMRA-27-mer and PLC-β3 directly compete for Gαq. (FIG. 3A) Increasing concentrations of PLC-β3 were added to a solution of TAMRA-27-mer (400 nM) and Gαq (800 nM). The IC50 value is derived from three independent experiments. (FIG. 3B) Phospholipase activity of PLC-β3 activated by Gαq using lipid vesicles and inhibited by increasing concentrations of TAMRA-27-mer.
FIGS. 6A-C. Quantification of Gαq binding to peptides corresponding to the HTH of PLβ3. […] The structures of PLCβ3 (3 OHM) and p63RhoGEF (2RGN) bound to Gαq were superimposed and a single Gαq is shown. Immediately below is shown the sequence alignment of PLCβ3 (SEQ ID NO:37) and p63RhoGEF (SEQ ID NO:41) encompassing the helix-turn-helix. Underlined residues are labeled in the structure. […] (FIG. 6C) Increasing concentrations of unlabeled PLC-β3 were added to a solution of labeled 25-mer (400 nM) and Gαq (4 μM). KD and IC50 values were derived from three independent experiments.
Fluorescence polarization will be used to monitor disruption of complex formation between the 27-mer and active Gαq to identify compounds that directly compete with the complex. It is expected that the majority of these compounds will sit within the canonical effector-binding site of Gαq to prevent the binding of peptide—and by extension, prevent the binding of effectors. However, before using this assay format to identify inhibitors of complex formation it was necessary to insure that peptides corresponding to the HTH of PLC-β3 bound to Gαq. […] These experiments strongly support that peptides corresponding to the HTH of PLC-β3 directly bind to the effector pocket of Gαq and can be used as surrogates of effectors in assays of complex formation with active Gαq.
The most promising peptide consisted of 25 residues (TAMRA-25-mer) spanning the entire HTH and bound to G-alpha-q with appreciable affinity (Kd˜6 microMolar).

Molecule	stimulation of PLC activity by Gαq downstream of the muscarinic receptor [1]	Kd (activated Gαq)	competition with the 27-mer for binding to Gαq (Gαq)
Palm-PEG-PEG-HQDYAEALANPIKHVSL-Nle-DQRARQLAA (HQDYAEALANPIKHVSLXDQRARQLAA; non-natural residues) [Palm-27-mer, 27-mer HTH peptide with a palmityl lipid linked through PEG linkers]	prevent the stimulation of PLC activity		
PLC-β3: full-length phospholipase C beta 3, effector of Gαq, used as unlabeled competitor (protein) AGAQPGVHALQLEPPTVVETLRRGSKFIKWDEETSSRNLVTLRVDPNGFFLYWTGPNMEVDTLDISSIRDTRTGRYARLPKDPKIREVLGFGGPDARLEEKLMTVVSGPDPVNTVFLNFMAVQDDTAKVWSEELFKLAMNILAQNASRNTFLRKAYTKLKLQVNQDGRIPVKNILKMFSADKKRVETALESCGLKFNRSESIRPDEFSLEIFERFLNKLCLRPDIDKILLEIGAKGKPYLTLEQLMDFINQKQRDPRLNEVLYPPLRPSQARLLIEKYEPNQQFLERDQMSMEGFSRYLGGEENGILPLEALDLSTDMTQPLSAYFINSSHNTYLTAGQLAGTSSVEMYRQALLWGCRCVELDVWKGRPPEEEPFITHGFTMTTEVPLRDVLEAIAETAFKTSPYPVILSFENHVDSAKQQAKMAEYCRSIFGDALLIEPLDKYPLAPGVPLPSPQDLMGRILVKNKKRHRPSAGGPDSAGRKRPLEQSNSALSESSAATEPSSPQLGSPSSDSCPGLSNGEEVGLEKPSLEPQKSLGDEGLNRGPYVLGPADREDEEEDEEEEEQTDPKKPTTDEGTASSEVNATEEMSTLVNYIEPVKFKSFEAARKRNKCFEMSSFVETKAMEQLTKSPMEFVEYNKQQLSRIYPKGTRVDSSNYMPQLFWNVGCQLVALNFQTLDVAMQLNAGVFEYNGRSGYLLKPEFMRRPDKSFDPFTEVIVDGIVANALRVKVISGQFLSDRKVGIYVEVDMFGLPVDTRRKYRTRTSQGNSFNPVWDEEPFDFPKVVLPTLASLRIAAFEEGGKFVGHRILPVSAIRSGYHYVCLRNEANQPLCLPALLIYTEASDYIPDDHQDYAEALINPIKHVSLMDQRARQLAALIGESEAQAGQETCQDTQSQQLGSQPSSNPTPSPLDASPRRPPGPTTSPASTSLSSPGQRDDLIASILSEVAPTPLDELRGHKALVKLRSRQERDLRELRKKHQRKAVTLTRRLLDGLAQAQAEGRCRLRPGALGGAADVEDTKEGEDEAKRYQEFQNRQVQSLLELREAQVDAEAQRRLEHLRQALQRLREVVLDANTTQFKRLKEMNEREKKELQKILDRKRHNSISEAKMRDKHKKEAELTEINRRHITESVNSIRRLEEAQKQRHDRLVAGQQQVLQQLAEEEPKLLAQLAQECQEQRARLPQEIRRSLLGEMPEGLGDGPLVACASNGHAPGSSGHLSGADSESQEENTQL		10 to 100 nM	could effectively compete
